Laboratory results as given in article PMC13235457 (2026).
Non-standard residues stand in square brackets, D forms with d. No end group written: not given here. pY = N[C@@H](Cc1ccc(OP(=O)(O)O)cc1)C(=O)O

How the values were obtained:
[1] = molecular target: Syk tandem SH2 (tSH2) domain; test: FP; 0 mM KCl, 150 mM NaCl
[2] = molecular target: Syk tandem SH2 (tSH2) domain; test: FP; 50 mM KCl, 100 mM NaCl
[3] = molecular target: Syk tandem SH2 (tSH2) domain; test: FP; 5 mM KCl, 145 mM NaCl
[4] = molecular target: Syk tandem SH2 (tSH2) domain; test: FP; 20 mM KCl, 130 mM NaCl
[5] = molecular target: Syk tandem SH2 (tSH2) domain; test: intrinsic Trp fluorescence; 20 mM KCl, 130 mM NaCl
[6] = molecular target: Syk tandem SH2 (tSH2) domain; test: intrinsic Trp fluorescence; 0 mM KCl, 150 mM NaCl
[7] = molecular target: Syk tandem SH2 (tSH2) domain; test: intrinsic Trp fluorescence; 50 mM KCl, 100 mM NaCl
[8] = molecular target: Syk tandem SH2 (tSH2) domain; test: intrinsic Trp fluorescence; 5 mM KCl, 145 mM NaCl

Kd [1] | Kd [2] | Kd [3] | Kd [4] | Kd [5] | Kd [6] | Kd [7] | Kd [8] | Binder
85.5 nM | 84.9 nM | 85.5 nM | 81.1 nM |  |  |  |  | NQL[pY]NELNLGRREE[pY]DVLD (also: AlexaFluor 488 label, position not given here) [ITAM-ζ1-Y2P peptide labeled with AlexaFluor488]
 |  |  |  | 84.3 nM | 97.5 nM | 82.7 nM | 86 nM | NQL[pY]NELNLGRREE[pY]DVLD [ITAM-ζ1-Y2P peptide (doubly phosphorylated first ITAM of the CD3-ζ chain)]
